Results on 40 sequences are retold here after the nanobody polyreactivity screen of Harvey et al. (2022).

The nature of this series: yeast display, Sf9 membrane polyspecificity reagent, FACS + sequencing; frameworks hold sequencing errors. The method in brief:
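Sorting gates, low and high (top ~1%), were placed on anti-HA fluorescence to track expression and on streptavidin fluorescence to track reagent binding. A clone's polyreactivity label is taken from the gate it came out of. The reagent was 10% biotinylated, detergent-solubilized Sf9 membrane, applied for 1 hour at 4 °C to galactose-induced yeast display cells.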
Regarding “QVQLVESGGGLLQAGGSLRLSCAASGFTIDRYAMGWYRQAPGKERELVAAISWGGGSTYYAVSVKGRFTISRDNAKNTVYLQMNSLKPEDTAVYYCAASRGFYHPKYESWGQGTQVTVSS”, the “polyreactivity (PSR sort gate)” value is listed as “high polyreactivity”.

For “QVQLVESGGGLDQAGGSLRLSCAASGRTFPYYAMGWYRQAPGKERELVAAISSSGGRTYYADSVKGRFTISRDNAKNTVYLQMNSLKPEDTAVYYCNVDAWYPYQGFLVGYYYWGQGTQVTVSS”, the “polyreactivity (PSR sort gate)” value was “low polyreactivity”.

In the case of “QVQLVESGGGLVQAGGSLRLSCAASGSIFTRNAMGWYRQAPGKERELVAAISRGGGTNYADSVKGRFTISRDNAKNTVYLQMNSLKPEDTAVYYCAARVGYPYPAGYDYWGQGTQVTVSS”, the “polyreactivity (PSR sort gate)” value is “high polyreactivity”.

Consider “QVQLVESGGGLVQAGGSHRLSCAASGRIFQRNTMGWYRQAPGKERELVARINYSGGSTYYADSVKGRFTISRDNAKNTVYLQMNSLKPEDTAVYYCAARVWTWSIYYRAGLSSYDYWGQGTQVTVSS”, for which the “polyreactivity (PSR sort gate)” value is “low polyreactivity”.

Consider “QVQLVESGGGLVQAGGSLRLSCAASGRIFGVNAMGWYRQAPGKERELVAGITTSGGSTYYADSVKGRFTISRDNAKNTVYLQMNSLKPEDTAVYYFNGLTRRWYSLRSYDYWGQGTQVTVSW”, for which the “polyreactivity (PSR sort gate)” value was “high polyreactivity”.

On to “QVQLVESAGGLVQAGGSLRLSCAASGLTFYRYAMGWYRQAPGKERELVAAISSADRTYYADSVKGRFTISRDNAKNTVYLQMNSLKPEDTAVYYCNARGIGRSTKWSSRDYWGQGTQVTVSS”, for which the “polyreactivity (PSR sort gate)” value was “high polyreactivity”.

For the sequence “QVQLVESGGGLVQAGGSLRLSCAASGRTFYRYAMGWYRQAPGKERELVATISRSGGSTYYADSVKGRFTISRDNAKNTVYLQMNSLKPEDTAVFYCNAEGYPWGFYTYDYWGQGTQVTVSS”, the “polyreactivity (PSR sort gate)” value is “low polyreactivity”.

As to “QVQLVESGGGLVQAGGSLRLSCAASGFIFYRNTMGWYRQAPGKEREFVAAIRWRGGSTYYADSVKGRFTISRDNAKNTVYLQMNSLKPEDTAVYYCAADSRPVYSGFEYWGQGTQVTVSS”, the “polyreactivity (PSR sort gate)” value is on record as “high polyreactivity”.

On to “QVQLQESGGGPVLAGGRLRLSCAASGTIFVRLDMGWYRQAPGKEREFVATIGSGSSTYYADSVKGSFTISRDNVKNTVFLQMNTLIPEDTAVYYCAVSAAEQSRHYYWDQGTQVTVSS”, for which the “polyreactivity (PSR sort gate)” value is reported as “low polyreactivity”.

Turning to “QVQLVESGGGLVQAGGSLRLSCAASGFTFGRYAMGWYRQAPGKERELVAAISWTGGSTYYADSVKGRFTISRDNAKNTVYLQMNSLKPEDTAVYYCAAVGRSKRDGYWGQGTQVTVSS”, the “polyreactivity (PSR sort gate)” value was “high polyreactivity”.

With “QVQLVESGGGLVQAGGSLRLSCDASGIIFGYYAMGWYRQAPGKERELVAGITWRGDITYADSVKGRFTISRDNAKNTVYLQMNSLKPEDTAVYYCAAESSFYRGYGYWGQGTQVTVSS”, the “polyreactivity (PSR sort gate)” value was “high polyreactivity”.

As for “QVQIVESGGGLVQAGCSLRISCAASGRTFYRYAMGWYRQAPGKEREFVAAISWRGGSTRYADSVKGRFTISRDNAKNTVYLQLNSLKPEVTAVYYCNADPQRSVSYTDQYRPVWYGYWGQGTQVTVSS”, the “polyreactivity (PSR sort gate)” value was “high polyreactivity”.

Take “QVQLVESGGVIVQAGGSLRLSCAASGFTFQAYAKGWYRQAPGKETELVAAITRSGGRTYYADSVKGRFTISRDNAKNTVYFQMKRLKPEDTAVYYCAKLSDSITLYGYWGQGTQVTVSS”: the “polyreactivity (PSR sort gate)” value was “high polyreactivity”.

“QVQLVESGGGLVQAGGSLRLSCAASGFTFAYYAMGWYRQAPGKERELVAAITGSGGRTYYADSVKGRFTISRDNAKNTVYLQMNSLKPEDTAVYYCAALTGPYKAQVHGGHTPLDYWGQGTQVTVSS”: the “polyreactivity (PSR sort gate)” value is on record as “low polyreactivity”.

Turning to “QVQLVESGGGLVQAGGSLRLSCAASGSTFEGNAMGWYRQAPGKERELVAAITSGGSTNYADSVKGRFTISRDNAKNNVYLQMNSLKPEDTAVYYCAADTVSFSILYDYWGQGTQVTVSS”, the “polyreactivity (PSR sort gate)” value is given as “low polyreactivity”.

As to “QVQLVESGGGLVQAGGSLRLSCAASGRIFVPNAMGWYRQAPGKERELVARISRSDGSTYYADSVKGRFTISRDNAKNTVYFPMNSLKPEDTAVYYCAASTTPRWWSFKYYYWGQGTQVTVSS”, the “polyreactivity (PSR sort gate)” value is “high polyreactivity”.

As to “QVQLVESGGGLVQAGGSLRLSCAASGRTYHGYAMGWYRQAPGKERELVARINWSDGRTYYADSVKGRFTISRDNAKNTVYLQMNSLKPEDTAVYYCAADKTVSYAPAWYYYWGQGTQVNVSS”, the “polyreactivity (PSR sort gate)” value is recorded as “low polyreactivity”.

Regarding “QVQLVESGRGLVQAGGSLRLRCAASGRNIRAYAMGCYRQAPGTERDLVAAITWSGGGTYYADSVKGRFTISRDNAKNTVYLQMTSLKPEDTAVYYCAAVTTLRPSWKRYYYWGQGTQVTVSS”, the “polyreactivity (PSR sort gate)” value is “high polyreactivity”.

For “QVQLVESGGGLVQAGGSLLLSCAASGSIFYRYAMGWDRQAPGKERELVAAISWNGGTTYYADSVKGRFTISRDNAKNTVYLQMNSLKPEDTAVYYCAADRPTSVYLFDYWGQGTLVTVSS”, the “polyreactivity (PSR sort gate)” value was “high polyreactivity”.

“QVQLVESGGGLVQAGGSLRISCAASGSTINRYAMGWYRQAPWKERELVAAINWRGSRTYYADSVKGRFTISRDNAKNTVYLQMNSLKPEDTAVYDCAASLGANGFQGRMYYWGQGTQVTVSS”: the “polyreactivity (PSR sort gate)” value is recorded as “low polyreactivity”.

As for “QVQLVESGGGLVQAGGSLGLTCAASGSIFYGYAMAWYRPAPGKERELVAAISSSGGNTYYADSVKGRFTISRDNAKNTVYLQMNSLKPEDTAVYYCNKVYYQVKYDYWGQGTQVSVSS”, the “polyreactivity (PSR sort gate)” value is “low polyreactivity”.

“QVQLVESGGGLVQAGGSLRLSCAASGYILTHYAMGWYRQAPGKERELVAAITRVGNTNYADSVKGRFTISRDNAKNTVYLQMNSLKPEDTAVYYCAVTYNGDSSWPGDYWGQGTQVTVSS”: the “polyreactivity (PSR sort gate)” value is “low polyreactivity”.

On to “QVQLVESGGGLVQAGGSLRLSCAASGFIFGSYALGWDRQAPGKEWELVAAINYDGGSTYYADSVKGRFTISRDHAKNTVYLQMNSLKPEDTAVYYCAADLYYTHMDYWGQGTQVTVSS”, for which the “polyreactivity (PSR sort gate)” value is given as “low polyreactivity”.

Take “QVQLVESGGGLVQAGGSLRLSCAASGSTYAMGWYRQAPGKERELVASITSRGGSTYYADSVKGRFTISRDNANNTVYLQMNSLKPEDTAVYYCAARWYYSYICYDYWRQGTQVTVSS”: the “polyreactivity (PSR sort gate)” value is given as “high polyreactivity”.

Regarding “QVQLVESGGGLVQAGGSLRLSCAASGFIFRSNAMGWYRQAPGKEREFVAAISSRGGSTTYADSVKGRFTISRDNAKNSVYLQMNSLKPEDTAVYYCARDWYYYPQYRQRYYYWGQGTQVTVSS”, the “polyreactivity (PSR sort gate)” value was “high polyreactivity”.

With “QVQLVESGGGLVQAGGSLRLSCAASGSILVGNAMGWYRQAPGIERELVAGSSESDGSTNYADSGKGRFTISRDKSKNTVYLPMNSLKPEETAVYYRAADIWTSGDIPYDYWGQGTQVTVSS”, the “polyreactivity (PSR sort gate)” value is listed as “low polyreactivity”.

For “QVPLVESGGGLVQAGGSLRLSCAASGRTFPSNMGWYRQAPGKERELVAAISWRGGSTNYADSVKGRFTISRDNAKNTVYLQMNSLKPEDTAVYYCNARYNTQRYRFLVQGDYWGQGTQVTVSS”, the “polyreactivity (PSR sort gate)” value is listed as “high polyreactivity”.

As to “QVQLVESGGGLVQAGGSLRLSCAASGSTFFRYAMGWYRHAPVKERELVAAISASGGRTYYADSVKGRFTISRDNAKNTVYLLMNSLKPEDTAVYYCNRQYGPYQYYYWGQGTQVTVSS”, the “polyreactivity (PSR sort gate)” value is “high polyreactivity”.

Turning to “QVQLVESGGGLVQAGGSLRLSCAAYGFIFKFYAMGWYRQAPGKERELVAAITSGGGRTYYADSVKGRFPISRDNAKNTVYLQMNSLKAQDSAGYYCAVDYLQYYYKKHYYGGQGTQVTVSS”, the “polyreactivity (PSR sort gate)” value was “high polyreactivity”.

“QVQLVESGGGLVQAGGSLRLSCAASGSILQVYAMGWYRQAPGKERELVAGISWGGGRTYADSVKGRFTISRDNAKNTVYLQMISLKPEDTAVYYCNKVWRFGYYGSYYWGQGTLVTVSS”: the “polyreactivity (PSR sort gate)” value was “high polyreactivity”.

Take “QVQLVESGGGLVQAGGSLRLSCAATGSIFARYAMGWYRQAPGKERELVAAIDQSAGSTYYADSVKGRFTISRDNAKNTVYLQMNSLKPEDTAVYYCNADFWYWWVNTYVGPGLGYWGQGTQVTVSS”: the “polyreactivity (PSR sort gate)” value is recorded as “high polyreactivity”.

“QVQLQESGGGLVQAGGSLRQSCASSGYIFPYNSMGWYRQAPGKERGLVACIAAGTTTNYADSVKGRFTISRDNAKNTVYLQMNSLKPEDAAVYYCAALNAFNTGHWYWGQGTQVTVSS”: the “polyreactivity (PSR sort gate)” value is reported as “low polyreactivity”.

With “QVQLVESGGGLVQAGGSLRLSCAASGITFLPYAMGWYRPAPGKERELVAAITRGGGSTYADSVKGRFTISRDNAKNTVYLQMNSLKPEDTAVYYCAKRYGRVSWYEDYDYWGQGTQVTVSS”, the “polyreactivity (PSR sort gate)” value is “low polyreactivity”.

For the sequence “QVKLVESGGGLVQAGGSLRLSCAASGSIFGSNAMGWYRQAPGKERELVAAITGRGGRTYYADSVKGRFTISRDNAKNTVYLQMNSLKPEDTAVYYCAAIRREVVAGDYWGQGTQVTVSS”, the “polyreactivity (PSR sort gate)” value is “high polyreactivity”.

In the case of “QVQLVESGGGLVQAGGSLRLSCAASGITFAYYAMGWYRQAPGKERELVAAIRGGTNTYYADSVKGRFTISRDNAKYTVYLQMNSLKPEDTGVYYCAVRLYLEMDYWGQGTQVTVSS”, the “polyreactivity (PSR sort gate)” value was “high polyreactivity”.

As to “QVQLVESGGGLVQAGGSLRLSCPASGRIFKSYAMGWYRHAPGKERELVAAINWSGGSKYYADSVKGRFTISRDNAKNTVYLQMNSLKPEDTAVYYCAAYFYGRWPYGTGYYYWGQGTQVTVSS”, the “polyreactivity (PSR sort gate)” value is listed as “high polyreactivity”.

As for “QVQLVESGGGLVQAGGSLRLSCAASGSIFWRNAMGWYRQAPGKEREFVAAISARGGSTYYADSVKGRFTISRDNAKNTVYLQMNSLKPEDSAVYDCAASWGLGTYSDSTYWGGYYYWGQGTQVTVSS”, the “polyreactivity (PSR sort gate)” value is “low polyreactivity”.

On to “QVQLVESGGGLVQAGGSLRLSCAASGIIFWRYAMGWYRQAPGKERELVASISWSGGSTSYADSVKGRFTISRDNAKNTVYLQMNSLKPEDTSVYYCAAVYYYRRRYYYWGQGTQVTVSS”, for which the “polyreactivity (PSR sort gate)” value is recorded as “high polyreactivity”.

In the case of “QVQLVESGGGLVQAGGSLRLSCAASGSIFGGNAMGWYRQAPGKERELVAVISWSGGSTYYADSVKGRFTISRDNAKNTVYVQMNSLKPEDTAVYYCATSSVAEAKYVTEGTFDYWGQGTQVTVSS”, the “polyreactivity (PSR sort gate)” value is “low polyreactivity”.

With “QVQLVESGGGLVQAGGSLRLSCAASGRIFRWYTMGWYRQAPGKEREFVDAITWSDTSTSYADSVKGRFTISRDNAKNTVYLQMNSLKPEDTAVYYCNAATRSSVTFGWYIEYDYWGQGTQVTVSS”, the “polyreactivity (PSR sort gate)” value is “low polyreactivity”.
